Reference: paper PMC10821498, “Radiosynthesis Standardization and Preclinical Assessment of the [^68Ga]Ga-DOTA-Ubiquicidin29-41: A Translational Study Targeting Differential Diagnosis of Infectious Processes” (Pharmaceuticals, 2023)
Where a SMILES comes first, the peptide text is derived from it. The star is where a group is joined. DOTA = O=C(O)CN1CCN(CC(=O)O)CCN(CC(=O)*)CCN(CC(=O)O)CC1

Experiments:
in vitro = in vitro ADME, rodent; conditions: rodent, serum
Procedure: (§1) SPB was determined via incubation of 50 μL of [^68Ga]Ga-DOTA-UBI29-41 with 450 μL of rodent serum at 37 °C and under gentle shaking at 450× g. At 30 and 60 min, proteins were separated via ultracentrifugation at 14,000× g using Amicon® 10 kDa filters (Merck Millipore, São Paulo, Brazil). The supernatant and pellet were conditioned in microtubes and their radioactivity was quantified in an automated gamma counter. The percentage of SPB was defined by the ratio between the radioactivity in the pellet and the total radioactivity, given by the sum of the radioactivities of the pellet and the supernatant.

rodent serum proteins = assay: in vitro; assay type: in vitro ADME
Procedure: as §1

[1] = assay type: physicochemical
Procedure: The n-octanol/water partition coefficient (P) of [^68Ga]Ga-DOTA-UBI29-41 was determined using the shake-flask method described elsewhere. A 50 µL aliquot (~2 MBq) of the final product was added to a mixture of n-octanol/water (1:1). The tubes containing the mixture were shaken and centrifugated at 5000× g for 5 min in a Minispin® plus centrifuge (Eppendorf AG, Hamburg, Germany). Then, they were let to rest until complete separation of the phases occurred. After that, samples of 100 μL were taken from each phase. Radioactivity in the aliquots was quantified in an automated Wizard^2™ 3” 2480 gamma counter (PerkinElmer, Shelton, CT, USA). From there, the logarithm of P was determined from the ratio of the activity in organic phase to that in the aqueous phase.

[2] = test system: methicillin-resistant Staphylococcus aureus (MRSA); assay type: in vivo; conditions: healthy and MRSA-infected BALB/c mice, 30 and 60 min after i.v. administration, n = 5 per time point
Procedure: The MRSA bacterial strain was prepared in two steps: pre-inoculum and inoculum. In the pre-inoculum phase, 10 mL of Luria Bertani (LB) medium and 20 μL of ampicillin (500 mg/mL) were added to MRSA (50–100 IU). The mixture was maintained overnight at 37 °C and under shaking at 200× g. In the inoculum phase, 20 mL of LB medium, 500 μL of the pre-inoculum preparation content and 40 μL of ampicillin (500 mg/mL) were combined. This new product was maintained at 37 °C and under shaking at 200× g until it reached an absorbance of 0.8–1.0. This quantification was carried out with an LGI-VS-721N spectrophotometer (LGI Scientific, São Paulo, Brazil). At this point, the content was manually homogenized and 1 mL samples were separated for centrifugation at 14,000× g for 5 min. Supernatants were removed and pellets were resuspended in 100 μL of PBS containing 10^9 CFU.
Male BALB/c mice aged between 6 and 8 weeks were used in this work. […]
For the ex vivo biodistribution study, [^68Ga]Ga-DOTA-UBI29-41 was administered intravenously through the caudal vein of the mice (~5 MBq/100 μL) in control and infected animals. […] Organs were removed and weighed, and the radioactivity was quantified in a gamma counter. Percentages of injected activity per gram of organ (% IA/g) were determined, as well as the ratio of target (right tight muscle) to non-target (left tight muscle).

Structure (SMILES): CSCC[C@H](NC(=O)[C@H](CCCNC(=N)N)NC(=O)[C@H](CCCNC(=N)N)NC(=O)[C@H](CCCCN)NC(=O)[C@H](C)NC(=O)[C@H](CCCNC(=N)N)NC(=O)CNC(=O)[C@@H](NC(=O)CN1CCN(CC(=O)O)CCN(CC(=O)O)CCN(CC(=O)O)CC1)[C@@H](C)O)C(=O)N[C@@H](CCC(N)=O)C(=O)N[C@@H](Cc1ccc(O)cc1)C(=O)N[C@@H](CC(N)=O)C(=O)N[C@@H](CCCNC(=N)N)C(=O)N[C@@H](CCCNC(=N)N)C(=O)O [[^68Ga]Ga-DOTA-UBI29-41, [^68Ga]Ga-DOTA-Ubiquicidin29-41, metal not drawn] ({DOTA}-TGRAKRRMQYNRR-OH)
- fraction unbound at 30 min (in vitro): 0.398
- fraction unbound at 60 min (in vitro): 0.559
- Binding to rodent serum proteins (SPB) (rodent serum proteins): 60%
- Log P [1]: –3.63 ± 0.17
- Blood clearance and excretion [2]: fast blood depuration with urinary excretion
